US7439329B2, “GEF-H1b: biomarkers, complexes assays and therapeutic uses thereof” (Sugen, Inc., priority 2002, dated 2008)

How the values were obtained:
GEF-H1S = biological target: T1, GEF-H1S (Homo sapiens, UniProt Q92974, INS962GETLAETWTR); test: Pull-down of GEF-H1 with PAK4 domains and biotinylated PAK4 peptides; format: binding; conditions: biotinylated PAK4 peptides linked to streptavidin beads
T1 sequence (Q92974 with tags, fused parts or gaps): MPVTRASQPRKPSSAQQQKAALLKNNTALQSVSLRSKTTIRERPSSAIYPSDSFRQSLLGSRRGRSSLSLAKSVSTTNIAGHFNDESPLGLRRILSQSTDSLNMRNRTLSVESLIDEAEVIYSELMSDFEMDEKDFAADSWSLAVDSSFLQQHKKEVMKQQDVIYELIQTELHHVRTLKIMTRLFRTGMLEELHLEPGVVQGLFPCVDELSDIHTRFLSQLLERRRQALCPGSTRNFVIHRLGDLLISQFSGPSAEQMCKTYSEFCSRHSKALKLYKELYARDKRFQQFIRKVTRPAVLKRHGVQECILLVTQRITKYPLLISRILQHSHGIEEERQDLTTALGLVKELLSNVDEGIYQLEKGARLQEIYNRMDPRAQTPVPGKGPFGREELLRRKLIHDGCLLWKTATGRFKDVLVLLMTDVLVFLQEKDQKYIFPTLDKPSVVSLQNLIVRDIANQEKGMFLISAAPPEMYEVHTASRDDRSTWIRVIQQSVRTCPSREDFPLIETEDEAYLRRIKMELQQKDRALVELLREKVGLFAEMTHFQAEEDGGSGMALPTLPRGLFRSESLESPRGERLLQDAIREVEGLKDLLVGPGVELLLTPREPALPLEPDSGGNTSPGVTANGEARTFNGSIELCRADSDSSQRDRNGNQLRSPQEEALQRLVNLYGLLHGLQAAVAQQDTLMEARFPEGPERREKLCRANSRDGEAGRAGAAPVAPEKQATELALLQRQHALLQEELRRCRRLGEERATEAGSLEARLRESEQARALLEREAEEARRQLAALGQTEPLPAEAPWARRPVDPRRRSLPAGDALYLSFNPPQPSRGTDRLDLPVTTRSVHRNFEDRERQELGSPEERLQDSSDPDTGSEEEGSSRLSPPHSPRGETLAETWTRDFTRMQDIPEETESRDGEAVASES
Method: FIG. 1: (SEQ ID NOs 32-34 respectively in order of appearance) Direct binding of GEF-H1 to PAK4. Lysates were prepared from 293T cells over expressing (a) myc tagged PAK4 alleles or subdomains and incubated with GST, GST-GEF-H1 (787-921) and GST-Maguin-like bound to Glutathione beads (1,2,3,4 bead designation) or (b) GFP-GEF-H1 and incubated with PAK4 biotinylated peptides (291-355) and (276-324) linked to streptavidin beads. An equivalent amount of beads and excess lysates (500 ug) were used. Eluates of beads and total lysates were analysed by SDS-PAGE and immunoblotted with myc or GEF-H1 antiserum; (c) represents a PAK4 gene schematic outlining the regions of PAK4 used to identify the GEF-H1 interaction domain (GID). d, alignment of the GID defined by the minimal binding region of PAK4 with PAK5 and PAK6.
To confirm the in vitro interaction of GEF-H1S with PAK4, bacterially expressed GST-fusion proteins were generated with the identical sequences isolated by phage display, encoding either amino acids 763-921 of GEF-H1S or amino acids 385-555 from the Maguin-2-like protein. These fusion proteins were bound to glutathione beads and utilized in binding assays with 293T lysates expressing exogenous PAK4.
Biotinylated peptides derived from the N-terminal region of PAK4 sequence were used to further map the GEF-H1 binding site. […]

PAK4 = biological target: T2, PAK4 (Homo sapiens, UniProt O96013); test: In vitro kinase assay, phosphorylation of substrates by PAK4; format: biochemical; conditions: autoradiography
T2 construct: Glutathione-s-transferase (GST) fused PAK4 (residues 291-591); GST (N); made in house
T2 sequence (O96013 291-591): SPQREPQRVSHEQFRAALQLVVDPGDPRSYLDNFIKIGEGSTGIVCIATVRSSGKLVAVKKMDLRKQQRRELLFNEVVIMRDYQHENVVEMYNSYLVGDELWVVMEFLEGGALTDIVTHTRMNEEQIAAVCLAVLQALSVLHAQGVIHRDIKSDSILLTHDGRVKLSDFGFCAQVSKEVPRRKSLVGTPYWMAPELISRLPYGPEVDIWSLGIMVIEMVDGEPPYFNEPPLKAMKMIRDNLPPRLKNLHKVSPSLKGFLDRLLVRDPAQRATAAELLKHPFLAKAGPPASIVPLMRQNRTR
Method: Next examined, was whether GEF-H1 is a PAK4 substrate. In vitro kinase assays were performed using a GEF-H1 GST-fusion protein, a Maguin-2-like GST-fusion protein and GST control protein as substrates for phosphorylation by PAK4.
The cDNA encoding GEF-H1S obtained in the phage display screen was excised and subcloned into pGEX-4T expression vector to allow for recombinant production of protein for in vitro experiments. The GEF-H1S protein was then mixed with PAK4 kinase and incubated such that PAK4 phosphorylated the GEF-H1S. A portion of this kinase reaction was separated by SDS-PAGE and autoradiographed to visualize the extent of phosphorylation. […] SDS-PAGE is a universal protein separation and visualization technique that is described in Laemmli, Nature, 227(259):680-5, 1970.
From the phosphorylation experiments described above, two peptides of GEF-H1S were identified as being targets for PAK4-induced phosphorylation. The GEF-H1S target residues were identified by aligning the PAK4 activation loop peptide with the GEF-H1S polypeptide sequence amino acids 762 to 921.
The following phosphoisomers (phosphate-modified GEF-H1S peptides) were used in PAK4 kinase assays to determine which residues were specifically phosphorylated. Because certain residues were modified to comprise a phosphate moiety (the underlined residues below), they could not be phosphorylated by PAK4.
Glutathione-s-transferase (GST) fused PAK4 (residues 291-591), GEF-H1 amino acids 763-921 (from phage clone 13.8 sequence, matches KIAA0651) and Maguin 2-like (from phage clone 13.32, sequence matches accession # XP-087831) were purified by standard procedures and as previously described 31. Amino acid sequence of peptides spanning GEF-H1b 807-824 #1008 (RRRSLPAGDALYLpSFNPP) (SEQ ID NO: 28), #1009 (RRRpSLPAGDALYLSFNPP) (SEQ ID NO: 29), #1010 (RRRSLPAGDALpYLSFNPP ) (SEQ ID NO: 30) and #934 (RRRSLPAGDALYLSFNPP) (SEQ ID NO: 3) used for in vitro kinase assays. In vitro kinase reactions were run as described previously 31.

| Sequence | interaction with GEF-H1S (GEF-H1S) | phosphorylation by PAK4 in vitro (PAK4) |
| --- | --- | --- |
| CTPAAPAVPAVPGPPGPRSPQREPQRVSHEQFRAALQLVVDPGDPRSYLDNF (biotin) [amino acids 276-324] | strong interaction |  |
| PRRRSLPAGDALYLSFNPP |  | phosphorylated |
| RQSLLGSRRGRSSLSLAK [GEF-H1 residues 55-72] |  | phosphorylated |
| RRRSLPAGDALYLSFNPP [amino acids 807-824, GEF-H1S peptide surrounding Ser 810] |  | high affinity substrate |
